Results: the supplement of paper PMC10724198
± gives the standard deviation of the averaged measurements.

test system: Saccharomyces cerevisiae; experiment: protein stability index of tFT-peptide fusion (C-terminal peptide) (PSI (0-1 scale)); higher = more stable (slower turnover); conditions: genetic background: wild type; temperature: 30 C
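Note: PSI is a weighted mean of sequencing reads over stability bins, variants kept only with over 10 reads, mCherry proximal and sfGFP distal, peptide attached via GGGS linker.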

Sequence	protein stability index
VRVECGVWGSVS	0.65806 ± 0.00012
VRVEGQCWMGRI	0.679 ± 0.017
VRVGRGGKELND	0.576 ± 0.11
VRVKRAGGGGVG	0.591 ± 0.028
VRVVGVSGGEGG	0.644 ± 0.027
VRVVPPQPELSP	0.648 ± 0.051
VRVYLSQNSRFG	0.723 ± 0.066
VRWGLLLSCLRS	0.666 ± 0.03
VRWSEVGMGVWR	0.708 ± 0.014
VSAFLPLFLLTP	0.601 ± 0.055
VSCNRGAYVRSR	0.6776 ± 0.0053
VSFAGSPVPSSS	0.716 ± 0.0095
VSFCDVEVRFFV	0.619 ± 0.066
VSFWSVFSWLSG	0.665 ± 0.014
VSGCPVVFRSYC	0.693 ± 0.024
VSGDRFKRHESV	0.695 ± 0.027
VSGFVILDSTCP	0.671 ± 0.025
VSIMRLGSCRQD	0.702 ± 0.033
VSLLCFCFGCVL	0.604 ± 0.022
VSLPMAPPPLDG	0.616 ± 0.013
VSLVVGTGEWGA	0.762 ± 0.17
VSLYRRFLGVYS	0.532 ± 0.011
VSPGYWGPAPLC	0.682 ± 0.016

Sequence	protein stability index
VSPPPRFPLLPS	0.669 ± 0.03
VSPRYRDRPGPS	0.692 ± 0.015
VSPSPLDHPFHV	0.684 ± 0.021
VSSVTFSLSFAL	0.813 ± 0.082
VSSWNALCVEGM	0.649 ± 0.0073
VSTRVAVESPLG	0.656 ± 0.03
VSVGRSSARVIG	0.725 ± 0.02
VSVSERVGNMLP	0.679 ± 0.035
VTCRALTFSLLG	0.635 ± 0.12
VTDTSCRAEVEQ	0.701 ± 0.059
VTEGVGGGKGRG	0.597 ± 0.056
VTFPSAHSSRRF	0.71635 ± 0.00041
VTIFAGIGQFWF	0.706 ± 0.021
VTKRSKKNPTNN	0.691 ± 0.018
VTREEALICSQP	0.811 ± 0.13
VTSVCGYVRIWW	0.71 ± 0.047
VTVLFFLGPSLL	0.575 ± 0.013
VVAAGGASDVGG	0.712 ± 0.056
VVADNGASGWAW	0.7579 ± 0.0033
VVALLGPSGGWW	0.742 ± 0.018
VVASSRSAQRLP	0.7006 ± 0.0064
VVCRTSPVCLGK	0.672 ± 0.019
VVDGWVAAWGVW	0.694 ± 0.003

Sequence	protein stability index
VVFGLESCDWRG	0.669 ± 0.0093
VVGHGLAGCKVG	0.668 ± 0.037
VVGRCVWRGMGG	0.688 ± 0.031
VVGRGGGFVGPG	0.616 ± 0.026
VVGRVGGFVGPG	0.677 ± 0.1
VVGRVTGGGSDG	0.646 ± 0.037
VVGRWGWACCRP	0.681 ± 0.071
VVHATITGPVRS	0.635 ± 0.019
VVKKDTHVKRKT	0.636 ± 0.027
VVLFHGLGFCHN	0.627 ± 0.072
VVLGGFAVGLGF	0.708 ± 0.021
VVLPLCRVPSHW	0.688 ± 0.05
VVLRRTLGAFLF	0.661 ± 0.059
VVREAKGHGGCR	0.667 ± 0.014
VVREARTLNGDM	0.671 ± 0.099
VVRLTALTNATV	0.671 ± 0.086
VVRLTNGLFSIL	0.662 ± 0.0094
VVSITYCGQGGG	0.694 ± 0.045
VVSLGLGPSLRV	0.709 ± 0.1
VVSQSPTLGSNY	0.655 ± 0.022
VVTSVLCGRVHL	0.682 ± 0.0069
VVVAWGGGAVVG	0.684 ± 0.018
VVVGSITRLGLW	0.6908 ± 0.00074

Sequence	protein stability index
VVVGVGGCVDMG	0.676 ± 0.014
VVVGWWALGRFL	0.629 ± 0.018
VVVRAGAIFAIP	0.62 ± 0.045
VVVSRARSSRSS	0.6332 ± 0.0021
VVWEGSEFVSLA	0.671 ± 0.039
VVWSGRWKGLRV	0.621 ± 0.12
VWAWGACPRGEG	0.6429 ± 0.0016
VWCAFNLLFARQ	0.574 ± 0.032
VWGIIQTDRMGR	0.744 ± 0.017
VWGRGWVVGWFL	0.612 ± 0.066
VWGRLGGGVGRA	0.719 ± 0.069
VWGRQGGGVGRA	0.715 ± 0.088
VWGVFGGCWCGV	0.693 ± 0.021
VWSWGDGGGAVV	0.734 ± 0.029
VWTATLRPPGHP	0.655 ± 0.068
VWVGGGRRDPKY	0.735 ± 0.075
VWVGGVSVGFFG	0.716 ± 0.061
VWVSRPWGRGGL	0.681 ± 0.038
VYACGVDFNVRG	0.678 ± 0.094
VYRLYPLSPLLY	0.679 ± 0.12
VYVLTKSSMGRN	0.692 ± 0.048
WADLIPDSFGDM	0.741 ± 0.059
WADYLWFGLNGG	0.712 ± 0.028

Sequence	protein stability index
WAGGGGGRVCGW	0.799 ± 0.11
WAGGSGRRIGCR	0.712 ± 0.0089
WARSLPHPISRR	0.803 ± 0.064
WASKVGSYICAE	0.671 ± 0.02
WCFSLGYFFFCR	0.585 ± 0.05
WCFVGLVNTCRI	0.617 ± 0.025
WCFVPLSFRLDS	0.71 ± 0.025
WCGGGGVACLLL	0.693 ± 0.0086
WCGTLVDRGCSL	0.554 ± 0.026
WCQREPSSKYKI	0.578 ± 0.054
WDGWPTGSGGTG	0.72654 ± 0.00043
WECGRVSVIRRC	0.594 ± 0.019
WESWGPDWLCVG	0.769 ± 0.035
WFGSGGRGWREF	0.713 ± 0.048
WFKSIREGKGSR	0.68 ± 0.044
WFNAGAGDLGSV	0.709 ± 0.033
WFPPLPPPPPPS	0.734 ± 0.028
WGCVGVGGLFSG	0.665 ± 0.017
WGECGVWVGLWG	0.709 ± 0.051
WGGGVGWSGACL	0.734 ± 0.02
WGGRSGTWGLVG	0.803 ± 0.1
WGGTGALGTVRW	0.759 ± 0.028
WGGVGLRGGWDG	0.713 ± 0.047

Sequence	protein stability index
WGGVGRLAGLLG	0.703 ± 0.021
WGGYLISLNLYN	0.561 ± 0.025
WGHFVGVWGRAG	0.664 ± 0.075
WGLGVFALKTLL	0.623 ± 0.034
WGRAGPSSPCSC	0.709 ± 0.088
WGRGWWEMVGRT	0.686 ± 0.0074
WGRIVRDFHCGG	0.614 ± 0.0083
WGRQSERILRST	0.606 ± 0.046
WGRRWRCAGRGG	0.656 ± 0.056
WGSSCQAEDVTN	0.737 ± 0.016
WGTGGGLGVGHV	0.726 ± 0.093
WGVCGVFLCLGV	0.572 ± 0.11
WGVGVGGRMRPH	0.707 ± 0.044
WGWSLARRFLSV	0.555 ± 0.037
WGYRLRGGGGQG	0.701 ± 0.064
WHFTPPPPPTSP	0.715 ± 0.011
WHGLLEWLAWRT	0.736 ± 0.078
WHRTGPFCGFPC	0.766 ± 0.17
WIIRATCAGVSL	0.528 ± 0.032
WKETGRGTISHK	0.699 ± 0.013
WKEVGGSRILLV	0.6033 ± 0.0031
WKKYTKTKKKKN	0.689 ± 0.021
WLDDCVRVGMRI	0.6722 ± 0.0033

Sequence	protein stability index
WLEVHVRERPGL	0.661 ± 0.035
WLFFVCEDAGGC	0.68 ± 0.021
WLPTTPLPPLSP	0.703 ± 0.018
WLVRRVSSGQFG	0.653 ± 0.062
WNCRILGLVMRG	0.695 ± 0.029
WNFVCGVFFATG	0.543 ± 0.056
WNPHFHALSWRL	0.684 ± 0.019
WPAPLPPTRPLP	0.722 ± 0.038
WPCGGLRFSLPY	0.674 ± 0.029
WPHGHVNTHRIG	0.737 ± 0.038
WPKNSTNHSWKW	0.744 ± 0.035
WPVPPASYPALS	0.728 ± 0.14
WQCRAPRFEKGV	0.696 ± 0.08
WQGLGGARGCML	0.691 ± 0.066
WRGEMGGSGGQA	0.713 ± 0.032
WRGLGWSDAGGG	0.654 ± 0.043
WRGRCGPVLGFC	0.659 ± 0.027
WRLVREGRMRGG	0.742 ± 0.031
WRRGIRAKIDSI	0.678 ± 0.015
WRRPRVLWVSSR	0.637 ± 0.0079
WRVFPVVSCSSS	0.6312 ± 0.0053
WSGKRAKGISEK	0.682 ± 0.04
